Experiment: soluble on expression in E. coli; label from the status in PepcDB or PDB records

Sequence | soluble on expression in E. coli
MGSDKIHHHHHHMTHLDDMALFVEVVKAKGFRGAADALGMPNSTLSRRIGALEKAIGLRLLHRTTRKVEPTEAGLLYYERSKRIVEEARLVHEQLGEMLAQPSGLLRASFPEGFANIFLAPLVAEFARRYPGIRFEFDLSPRLADLVSDPVDVAIRMGEPANSNLIARQLARLPRHLYASPRYLDMLGEPQHPDELVQHECLRLRGSKSDIWTVQNRDETVDVAVGGRFLLNSVGMIQRLAALDMGIAILAESIVTDDVAQGRLRRVLPQWEATPVPVYALTETRLLPAKTQRFIDFLREHLSSI | not soluble
MHKPCAVIPVYNHETAVPAVVEVLLARGLPCVLVDDASSPQCAAVLEQLAGLDQVFLIRLAINQGKGGAVMAGLREAAQLGFSHALQVDADGQHDLTDVDNFIQHSQAHPEALVCGYPQYDASVPKGRLYARYLTHVWVWINSLSLQIPDSMCGFRVYPLPPTLALLDSVQLGRRMDFDPEILVRLAWRNQPMRWLPTRVHYPQDGLSHFRLFHDNALISKMHAKLFFGMLARLPLILWRRWRPLEHHHHHH | not soluble
MRSTKVIHIVGCHAEGEVGDVIVGGVAPPPGETVWEQSRFIANDETLRNFVLNKPRGGVFRHVNLLVPPKDPRAQMGFIIMEPADTPPMSGSNSICVSTVLLDSGIIAMQEPVTHMVLEAPGGIIEVEAECRNGKAERISVRNVPSFADRLDAPLDVTGLGTIMVDTAYGGDSFVIVDAAQIGMKIEPGQARELAEIGVKITKAANEQLGFRHPERDWRHISFCQITEPVTREGDVLTGVNTVAIRPAKFDRSPTGTGCSARMAVLHAKGQMKAGERFIGKSVLGTEFHCRLDKVLELGGKPAISPIISGRAWVTGTSQLMLDPSDPFPHGYRLSDTWPRDELEHHHHHH | soluble
MALKNVPFRSEVLAWNSDNLADYFRKLNYRDCEKAVKKYHIDGARFLNLTENDIQKFPKLRMPLLSKLSQDINKNEERRSIFTRKPQIPRFLEETESHEEDDGGWSSFEDDYESPNDDDPDGEDDGDYESPNEEEQALVDDAADYEPPPSNNEEALQSSILPPNSFHNTNSMYIDRPPTGKVSQQPPVPPLRPKPALPPLPTGRNHSPLSPPHPNHEEPSRSGNNKTAKLPAPSIDRSTKPPLDRSLAPLDREPFILGKKPPFSDKPSAPLGREHLPKIQKPPLPPAMDRHERNERLGPVTTRKPPVPRHGRGPDRRENDEDDVHQRPLPQPSLPSMSSNTFPSRSVQPSSKNTFPLAHMPGAFSESNIGFQQSASLPPYFSQGPGNRPPLRSEGRNLPLPVPNRPQPPSPGEEETPLDEEWYVSYITRPEAEAALRKINQDGTFLVRDSSKKTANNPYVLMVLYKDKVYNIQIRYQEESQVYLLGTGLRGKEDFLSVSDIIDYFRKMPLLLIDGKNRGSRYQCTLTHAAGCL | soluble
MSLVEDGKATLGLRNFYINRNFTNPSNPQSKAEEWTQSFILDARSGFTEGPIGFGVDVLGLWSVKLDGGGGTYGTALLPRHDDGRPADDYGRLAVAGKARISKTELKIGEWMPVLPILRSDDGRSLPQTFRGGQVTSNEIAGLTLYGGQFRGNSPRNDASMEDMSYGGGVSDRFNFVGGEYKFNQDRTQVGLWNAVLKDVYQQQYLQLSHSQPVGDWTLGANLGYFHGDEDGSERAGQLDNKTYSGMFSAKYGGSTFWVGLQKVDGDTWMRVNGTSGGTLANDSYNSSFDNANERSWQVRHDFNFVTVGVPGLTLMNRYISGRDVHSGGVTDGKEWVRETELAYVIQSGAFKDLSVKWRNSSIRRDYSNNEFDENRLIFNYPLSLLEGHHHHHH | soluble
MTLAEAADAINFGLAGRVVLVTGGVRGVGAGISSVFAEQGATVITCARRAVDGQPYEFHRCDIRDEDSVKRLVGEIGERHGRLDMLVNNAGGSPYALAAEATHNFHRKIVELNVLAPLLVSQHANVLMQAQPNGGSIVNICSVSGRRPTPGTAAYGAAKAGLENLTTTLAVEWAPKVRVNAVVVGMVETERSELFYGDAESIARVAATVPLGRLARPADIGWAAAFLASDAASYISGATLEVHGGGEPPPYLGASSANK | soluble
MNSFKKFLNKKRVQNHFKKSGEGVRLSSGESSSQPSAHAGAAQGGQIDRVAAADIAAQAAFKRMQKNEPQQNAGKRRIQMIAKRELEEERRQVEDLNISGTSSLQQPDREQHLEHSSAISRVLYTSELLGEHHIRSKADLLEDIKNFLSDQISEADDENDKVIAAVLMLYSLNKKHPKETAIETICKYCQNILEHPGEDKYKSIRLGNKAFQERVASVVGGRAFLEAVGFTEKSEGEDKFLVFTKPSDVHLVEALEALKDGQAVPIKVARNLEIFKLKEGQKPKAPKLADDFYNLSTAELKAEQRNKEMQVERMLTLRTKEMRQKDEQMTNYRYKYTLIRVRLPGNLLMQGVFGCHEPFSAVRVFVASTLSDALSTSEFTLRDAASQLVEDESASLAQLSLAPAALLHVVFAENLSDYGQIVADEHIEIIQELEASD | not soluble
MFQSSAAPAPQTADVTNPFGNFAAPSAFPTNVPPPAAHSAPFGVQPAPQHSAAPFYANLHQAPPMQSQAPNGHQAAPFGYPNAHPDDLARMTAQMSLNQQGAPAGWNTTTSAVSNNPFGATSAPQPMYTAPMGMYQQPFGAQPMWNPAMAAYGQQYGYGQPVPPQQQHQIQLVHAAMAAKNAAQAQQAQAASADPFGL | not soluble
TNRVADLTIYIIRQGVLDRRYLGEIERLYTENKFTNMCLVLNDVSYSGSRGTYGYGYGYGYGNKEYGKQGKKLRRRSAKKTKKFKIGPMKKS | not soluble
MGSDKIHHHHHHMEGRINPENWKDIFSDTLYIITDPNGVTAVIPEETAKTASSEPVKAAPADIKPTPVTTATPALPKIPSIPTPASATPNQQPAPVAAATAVLKPAGKYSNGILILMHVSYTMTPAQQEMLGKIVKAVQLDYNECGVLQVSAPVSLKEIETLKPRIVLSFGLPTDAFEPRMTKDLYSIQKHNSTIMLLADSLAKLETTVALKSNLWNAMKEMFGIK | not soluble
MKISLVTVTFNSAKTLCDTIHSVLSQSYTNIEYIIVDGLSNDETVTLIKEYEPLFQGRLKWISEKDKGLYDAMNKGIRMSTGDIVGIINSDDFYHRGDVLEKVAESFEAGETEAIYGDVRFVNPDNLDRTVRYYSSKRFVPSLFRFGFMPAHPTFFTYRKYFDQFGYYKTNYKIAADYELLVRFLYVHRLKSKYLPLDFMKMRTGGASTASIKSNILLNKEIVRACKENGIWTCYPLLLLKYLVKVFELIFIKKLEHHHHHH | soluble
MDNRIPSALTTSVKSPKTPSGIPFLIRERDVIKAILEFLEIRGLHITQLSLEREAGVINGAFSDDLLFLRQLILDGQWDNALDFVEPLKPVNEFDFGAFRYNITKYKFFELLCVKLEPGPLHDNDFAVEELVECLKDLEHICPTPEDYRHLCALLTLPKLSDHEDFKNWNPSSARVECFNKVNQLCGHLLPPTGKEKDRGDDANSSNDRLTGLITKGRFYEGCVDYCQAQAIGDKRGIDAGPMPSEMLTFRPKLGSADLSLVCWLEMVGKEQFSMPFKQKQLELKVDHIRKPKLEAPWTETIMATPIKPGGQFPHNLVPSSKLKFAEKMSQSMTMSMLPPADLTTSMFPSVPRGHPMSQSTAAGFCLGTAITEADAMAQSLLIDEMMESSQLARTSRPDTLRGVGMMMTGDTIVPVQPAQVMINAPSQLSSQMMSMSMAPQVMAPIAPMAQNMINYDFAPVRRQLDEMARRSLPPSRLPTVPELGSPAVNSHHEENLMTQSRLFQQFSAAKQINEMVLPRGVGGVVGAAGAVGGAHVLPLQSQERLFQQRVAAAPGFQNGAQIPNQSMVPQGVPMSHQIRPQSIAGLPQAQPQVPQQLQRPVSAPTGMGVQFVPVCRYEDSQAIRATGFHPSGRYFALGTNSKQLHICLYPDTKRTQSRPMAYEQTKNAEIAVTRPKQHRGSVYCLSFNPNGDLLATGSNDKTIRLMAFNEDSCRIGAEMELTCHDGTVRDLIFIESSINRSTILVSGGAGNCHLNVTDCNTGQLIQSMKGHTAPILGLYTWSQAGNQFVSCSQDKTIRFWDLRQQTAVNVISPGSNKSHNASPVTSVCVDPNGKLLVSGHEDASVALFDIGGNRILQTFRPHGDEVRTVRFSNAAYYLLTASYDKRVVISDMRGDLMAPLMYLPVAEHSDKVVQCRWHPHDFSFLSTSADRSAVLWSLPNR | not soluble
MTMEALLTPNNNNVPTSPVQTTYTSTQRYCSAPNVDIGESKTNLIINYLPQGMTQEEVRSLFTSIGEIESCKLVRDKVTGQSLGYGFVNYVREEDALRAVSSFNGLRLQNKTIKVSYARPSNDQIKGSNLYVSGIPKSMTLHELESIFRPFGQIITSRILSDNVTGLSKGVGFVRFDKKDEADVAIKTLNGSIPSGCSEQITVKFANNPASNNPKGLLSDLEAVQQAATTLVPLSTILGAPTLRATAGGIGPMHHAPITSKYRYSPMGAITAVSQPTATLPADYLTTSALLQMSQLNALAGLNPFATATAVPDFTASLIAHQQQQHAVAQQHAAQTASPPATNGQVAGLAAHAQLSALSASVAATLPPSDTAGYCLFVYNLSSDTDDTLLWQLFSQFGAIVNVKILRDLTQQCKGYAFVSMSNYTEAYNAMLSLNGTNLAGKTLQVVFKSSTPYRA | not soluble
MSLTSEEERAEQAMAAISQIEPTRRLFVWTLTHGIVEYGSARAPAQHNTVSPQAAIEWVVRRGEPGIFIFKDLHPFIDLAPVKRWLRDAVAGFKGTDKVLVLMSPIQQIPTELEKEVVVVEFPLPGPGELNELLNVHLSQAPDKLRILSDAGREKMVKAALGLTKDEADKVYRKAEVVSGRLTEAEVDIVLSEKKQIIKRNGILEYLEFDDEGHHHHHH | not soluble
MSLENGVLKVGLCAAWPPFESRNETTGEIEGFDVDLAKALGEELGVEVEIIDAEWQALLGGLSKGDYDTLITCMSKKEASVENVEMSDVYYELNDVIVVRNDNNEINSVSDLSGKIVGVQLGSGSEQAVDALSGIQEIKRYNYNPEAMIDLQNNRSDAVVVGYTYALSEISKYPDLKVLDTPVASAEIVMVQKEGAEELTAKLNEALSNIKENGKYDEIQDKWLSLEEGHHHHHH | soluble
MLMRQVLEEACLKSGFEVNSHRLQTQSRKPIDSSLPFRLTGLANNATLEMTQKEAVSENTIIELAIQTASGARHQKKVGVNQMLLDALKSFTSEFKEDLATTIDGSVPCIVYMNKRYTGAELAVNSLSSLGVASGKCLIRHMRVKLSDQELATMQAKLQEENERKKALDVNFVKLKAENAERDRLERLRQEAFDKDKESREKREQEQLRALIPEPASNIQDSTVMDTTESQQRDVLQEVPEQNPNSWSFDGPAFSRQVPQNTMRMEELNRLLERVDHSLATPAVESRMDAMVNALADGGRISLAEVRTRADVAMEQEQEEDPVEVFANPCDRQAVIYKKRARVQTTDEPMETEEFFEVGIEDVRNMQKDLRKAVRDQTQASFISKEYLAKKNRQLKLEAYKHTVIRISIGEHILQVYFNTAEQSSNLDLFLNNVLTRSGWKLMFTNLKVVTNELKNFVDIELAPKSTLIASFGGQTVNAADVVHNVIEVTPEKADAMSADWLSLNKTFMPFNSTVNDDRKQKRPQFQSSSSSSHSGPPAKSAMPKWLQTGKK | not soluble
MEHKLEDIIAIFNQCFEEEYNTRLVKGGDEPIYLPANDEVPYNAIYFARGFYSSALHEIAHWLVAGKERRKLEDFGYWYEPDGRSEERQRDFEKVEVKPQALEWILATAAGFRYFASADNLNGNPGDTQPFKQAVYEQVKIYAEKGLPKRAETLRKALVAFYSTEDDINLAKFDVTCI | not soluble
GNYPRNVGLSPLSGVDPSEVFDVTPYAVATDKYFIKNATTYHLPRKLKVSYSNCYTDTAHCSIQDLGFVATLKNDEPYFRVFLGGGLGKQPKVALELDELIKPKDALYCVEGMIKFFMDYGNYENKNRARVRYMVESLGEELFLEKFKEYYKLEKENGSLELNI | not soluble
ESICLIGHSLGGDLARYFASEFEEVKKLILLDGGYLDLDKILPLDTELEETKNYIKSQIVSDLDVLTSKEKSEAKHWSENMEKAVRQSYHWNVEYNRYELAINYENIEAILRLRRKIQAFKREVGDTLFISPRYPNEATWREEALKELPDYFDTIFLENFGHELYTQAPKEIASLMNEWLAYFL | not soluble
